Measurements from patent US20060257928.

Target: biotinylated H3 peptide (first 21 amino acids of Histone H3 with a Biotin label on the CO2H terminus, Upstate Biotechnology), P68431

B1: SUV39H1(82-412)-GST protein (protein)
chain: CVRILKQFHKDLERELLRRHHRSKTPRHLDPSLANYLVQKAKQRRALRRWEQELNAKRSHLGRITVENEVDLDGPPRAFVYINEYRVGEGITLNQVAVGCECQDCLWAPTGGCCPGASLHKFAYNDQGQVRLRAGLPIYECNSRCRCGYDCPNRVVQKGIRYDLCIFRTDDGRGWGVRTLEKIRKNSFVMEYVGEIITSEEAERRGQIYDRQGATYLFDLDYVEDVYTVDAAYYGNISHFVNHSCDPNLQVYNVFIDNLDERLPRIAFFATRTIRAGEELTFDYNMQVDPVDMESTRMDSNFGLAGLPGSPKKRVRIECKCGTESCRKYLF
  Histone methyl transferase activity (radioactive assay, 14C labelled methylated H3 peptide): Histone methyl transferase activity of truncated protein was confirmed by radioactive assay
